Test: soluble fraction after stress (log2 fold change); higher = more stays soluble; pooled small domains, quantitative proteomics
Settings: stress: pH 4
In short: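 Values are log2 fold changes, and higher ones mean more of the domain stayed soluble. Each fold change reflects the soluble amount of a domain after acid stress and is taken as a measure of aggregation propensity. The stress was pH 4, applied to pooled custom libraries of small protein domains analysed by high-throughput quantitative proteomics.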

## HMLLTLPEDIITMVRQGTLSAGHARVLAGLESDEMKMTLARQTITNEWSVRQLENAVALMRKS
  soluble fraction (log2): -0.858

## HMLHMKAALGELMSIPGMRSELAGTLFDRGYTSLAQLRAATLDDLERVNGLERADARRIHDFLRKS
  soluble fraction (log2): -0.066

## HMQTEFVISSGEQPKRLDVFLLQREPYLSRAALQRMIAAGWVRVNNHLAKSSQRIKAGDVIVFD
  soluble fraction (log2): 0.0697

## HMEGNLVEIFEDAFGRTMSTMDIEYINQFKRTGYDDEMIVSALREAVKSNALSFRYIERVLENWAHS
  soluble fraction (log2): -1.83

## HMTEELQDMESRIIEAAKRVFVRKGYEATKMSDIALEVGLGRTALHYYFRTKEMLFDAIFGRLMGV
  soluble fraction (log2): -0.594

## HMNTEEVGSYLKKLRLEHSFTQKELAGKLYITHQAVSNWEKGKALPDIGILSQLGDIYGISIDNLLLK
  soluble fraction (log2): -0.551

## HMFNDGEIAIYTDPRGDAGETQIWKRGKGYYGQNDSFDFEAKDKKELEMKLKRWGYVLIAGSIDE
  soluble fraction (log2): -0.0774

## HMLPFGHTRLEDGTIQEIPEQIALARKVAEMYKAGFPVMQISIKTEGLLTPRQIYGLMNHWGVKR
  soluble fraction (log2): -0.412

## HMFKLPRTIGTFEDSDVVIGAGKFGPYIMHNKKFVSLPKSEDPLTIGLERAIELISAKREQEKQRH
  soluble fraction (log2): 0.237

## HMVITATYTDFMDALEADEVKQVQFSSTEINYTIEKGGHVQYFKTGVVDNPQLPQILREKGVTYAAEIP
  soluble fraction (log2): -0.023

## HMVLSKGAKELLDFIMREGEVTTSKVVQKFGGSAQNASAKLKKLYATGLILGSKAVAESGGLEFVYKA
  soluble fraction (log2): 0.1

## HMSNATELVYDDGRKLLISYETLVGGYHPDLGWIRTAKTYSISTDKHIRNYFNNVTNPRVVGEDILETLKI
  soluble fraction (log2): -0.237

## HMTKNIIVTTSVKTSDELVEVAKNHALNLELDFNYRNKKTIKELLSSFDGLVVIYKNKISYFEDNSELF
  soluble fraction (log2): 0.22

## HMSIAKIIGDRIRAYRNQKGWSQEYLAEKADVHHTYIGQLERGEKNATIESISKIAGALGVSLSRLFEN
  soluble fraction (log2): 0.192

## HMSGIGTTIKMLRENKNISQEELGNVLGVSDKTISSWEINRTEPKMGIVQLLADYFGVSTDYLIKG
  soluble fraction (log2): -0.201

## HMNQSYQLWIKDDELGPTPRSVGVLNEHFEVDPAALTNYDAELLRRATFGISLEPRGGSPTGQP
  soluble fraction (log2): -0.688

## HMGKQPLYEQLVDLLRDRIENDMETGELLPSERKLAHHFGLSRTTVRLAMDRLETLGLITRVHGKDTFVAE
  soluble fraction (log2): -0.12

## HMVDTSDLPAIVEKVFADNPEQVNDILNGKDRVKGFLVGQIMKATRGQAPPDEVNKLIDATLEKMKAA
  soluble fraction (log2): 0.188

## HMHSPTFYVHVVGQVKVPGVYELEVGSRLFDAVIAAGGFKDDADQASVNLARPLSDGEQIVVLKLGDQ
  soluble fraction (log2): -0.732

## HMKVFREERLQLILEKLIHEKKVVVSDLVKYFNVSPSLIRMDLAELEKRDLILRTHGGAILPD
  soluble fraction (log2): -0.0668

## HMEETLEELGKEYESAFTMYEKLWSYYKKQNYHQVNHKRSERYEILLGFVREYHPEKVEYYRELL
  soluble fraction (log2): -0.482

## HMETSVDEVYKKIQAYIEAEDKHKPLSDQKLAEQLQSDGLKVSRRTVAKYREKLNIASSSKRKR
  soluble fraction (log2): 0.379

## HMKVDRLVSMILILLEQQRVGAQELADRFEVSVRTIYRDMEAINQAGIPVRSTSGVGGGFEIM
  soluble fraction (log2): -0.314

## HMDVQGFVMDLDKPLDKEPIVEGFELKLEDSLTLVAAVNKDKSINSLFDELSKLGIKVKSMRNPP
  soluble fraction (log2): -2.11

## HMVSVGDIFAGRIISNENGHLLLQLLDGSKISAQTVTDLKYNIGDVLNLEIIEEKQGLIFVRQT
  soluble fraction (log2): -0.471

## HMKYWTISDLYSKLEEDQVELGAFSEDSNKVTVLDRQGYEHVIKILSSDVPALTELFRKKKVRFAVAG
  soluble fraction (log2): 0.0959

## HMKKLTNKQIIFFAEKLAHHSDFASKYSKVGESYEEFAIRLEKELNTPQKVEFYSSYLEKVGFK
  soluble fraction (log2): -0.78

## HMKSQVVAYSDFVKAVNQKQINEVQIQGDKIRAINKAGEEITVTWLQNDQKLMDDLLDNNVKTIFLE
  soluble fraction (log2): -0.282

## HMGVRPAALGFQKVRIEPQVGTFREASGDVITPRGLIHAEWKRDEENALHLHYTLPDGVAYA
  soluble fraction (log2): -0.109

## HMPLNAHIVGRGKRDRRGKRGAPYSIVLELGRDENGKRIQKWYSGYPTKAAAEEDKIRMLRELQTGEYVPQ
  soluble fraction (log2): 0.153

## HMFPNSFSEREKEVVDLLLQAKSNKQIAFSLGITNRTVEYHLGNIFAKLGVSSRSEAILTITNYKNQ
  soluble fraction (log2): -1.27

## HMAELTTVQAADILHVSRPFLIKLLDEGQIPYHRVGKHRRIRMEDVMNYKRAIDQQREAVLDQLVAEA
  soluble fraction (log2): 0.014

## HMQMKDRILRIMEHEGISPSKFAEEIGIQRSAMSHIISGRNNPSLDVLTKIMQRFTYVDTDWLLFGKGSMV
  soluble fraction (log2): -0.334

## HMHSPLLDRYLAEVGWRLRHLSGAQREDILAGLREHIADLESAGVAPEEIVARLGSPESVADAAAGEF
  soluble fraction (log2): 0.0489

## HMEDPPISQEQRQALFKMAHDHLGKDEGNKAILTLIQSHGLNSTTGMKVSTYNTIMEELVSTIQSLAA
  soluble fraction (log2): 0.0682

## HMLSVTLTVLPQQAGERLDAFAAAESTLSRSAAAKLIEDGQITVNGARAAKNYRLRAGDVIEIDEPEPI
  soluble fraction (log2): 0.194

## HMTDIKYLIADGNDIKHWDTASSSYVKVSELPLTSDKFKIYGDDIYHKERTGIIAASPILKIWSPSAE
  soluble fraction (log2): -0.0343

## HMEHIEVDTSHIAVGSKVKHKAFGLGEITDKGNTYVFVKFDGQAIPKKFQFPGAFTQGFLTK
  soluble fraction (log2): 0.154

## HMAGATDTVRNLLERQIREGELLPGQRLPTEPELAARLGVSRNSLREALQSLEDSGLIVKRHGIGTFVTE
  soluble fraction (log2): 0.22

## HMNGVFIMHTPDGKVLRTEEGEEAVITLFNWSGQLLWSKTSLGQLPLPEGTQGVLQVQYKSGDQHTIKT
  soluble fraction (log2): -0.425

## HMTAYEGLPVTLIIDGRVFQQNLQKMNLSVEWLRLELKKFGVTNLKEVLFASLDTEGKLFYQLKT
  soluble fraction (log2): -0.878

## HMAAGVESLTEKEFAVASLVGGGASNREIAERLAMSERTVKSHLSSIFRKMDVRDRVQLALAMND
  soluble fraction (log2): -0.0425

## HMSTNYVQVLRAALNGVSGRKLAQQYRVSRDTVAILLRQAKIQGWQRAEDLENITEEDLVALLSG
  soluble fraction (log2): -0.987

## HMHYKLIIFENHTKSTSLDITPEQARQILGVTDYTPEQYEILAEITNRPASYFMDDLVDYYVD
  soluble fraction (log2): -1.53

## HMAESNQIQLSDVREALNMIGPASWLDLVHYLDTGKGRGGQRLRRMLKSLSRSGEIELVARGTYQITDN
  soluble fraction (log2): -0.742

## HMSDPEAFIRQTVAAAEPEGIALSVLGKRVRGKFRTFKLRDLGYAQFRPYLGDLDGIKVEQRDGQSYARLD
  soluble fraction (log2): 0.045

## HMELNESVLKALYEKFREMSGSKGFITEDEVIIQLEKENPDITPDQQAEIFKYLYDTPLQIY
  soluble fraction (log2): -0.996

## HMSDKPRYYINGNTLFISDKSVKKVLFSDLSGRSILHTTETAINIATFRGAHILTVIYTDGSTKSEVIF
  soluble fraction (log2): 0.235

## HMNPFLELTEREMDVLRLIAIGRNNQEIASELVISEKTVKTHITNIFSKLHFKDRTQAAAYAWQSGIVR
  soluble fraction (log2): -1.07

## HMVDDNFGLGEVTDQNYLTVLGRALDLIGWTDEQADSYSLKTFGVPHWDELGRSQAEKLVAHLIGLLKEQM
  soluble fraction (log2): -0.157

## HMKFNEKQNEVRIAIMNFIIDNKRPFHMKQDGYDALEGITLSGRHEFQDILDVLHSRDGFSADEEGNINF
  soluble fraction (log2): -1.69

## HMDAAEVEATARAMLRRSALNLLAQREQTAFELKQKLSRRFPEQAALLDEVIERLQEQGLQDDTR
  soluble fraction (log2): -0.527

## HMKELTPEQLQHNWNNLRQFIDVNFSGDRLGGLNKMYDYFEERMMFAPASGKQHYHNAFAGGYVEHVMHV
  soluble fraction (log2): 0.0505

## HMSRLLRTDAHLQYAAERGLPVTASAYTPVFAGAKQYTGRIESFDAQTIRFADGPAVERKAVARLEAE
  soluble fraction (log2): 0.138

## HMNMVEESVKKSSQWAVFEPNTISTWVKIQAMIENYLYQKWKEGALAGAKPEHAFFVKVGLGETM
  soluble fraction (log2): 0.0622

## HMDTETLIDKYQLNASEAAVLRFMDKNRDSLRDLGIRDVARASYVSTATIVNMAKKIGYSGYSELVFAYGS
  soluble fraction (log2): -0.545

## HMPSQLPLAFARRHGVLLRGFSNGLAQLTVRPEVSTLSLAETRRHLGVPLALEKVTTERFDQLLREAYEA
  soluble fraction (log2): -0.152

## HMANYTVNAYNNGGTGGSVNMRSGPSTNDGIVVRVPHGATVTGTKSGTWSYMTYNTYTGYMMSVYLDEQS
  soluble fraction (log2): -0.0556

## HMAVDPSVLTRRERQALAWIARGLSNKEVARGLNLAESTVKVHVQSILRKLNLTSRVQAAVYAIEHGIDK
  soluble fraction (log2): -0.0198

## HMDGFVFVMPIKETRMFSVNDERPLVGIVKYSNGEFEKEQLIGFRPNSEYEFIIEGQRLYRVPVNSITIK
  soluble fraction (log2): -1.25

## HMGGPTARQMEVLSLIAQGLPNKRIADELGIAERTVKLHITALLDSLGARNRTHLLVVARERGM
  soluble fraction (log2): -0.608

## HMHPFELNTVTEGQLKRLPFLSDLQIRELLEYRSRYGKMLTLYELKNVEAFDLETISLLVPFIYISEI
  soluble fraction (log2): -1.44

## HMSFNGTILSNYQKTYPNLAKFTYDQANDALVYEGNFIKLNGYGLSRIDPVFFNMNPDEIFIFIKNG
  soluble fraction (log2): -2.69

## HMDENILKTRIEDLDLSVRTIKALTGASIRTVSGLARKKESDLLEISGLGDKGIQEIKRALGSLGITL
  soluble fraction (log2): -0.0429

## HMKSARDDILSALDKAGEPLSMKDIAELSGRKLSTLRAQMTRLVAEGAVQATAAAHSPDRKYRK
  soluble fraction (log2): -0.133

## HMTETSKLTDAKQLLESILSSGEVSYKDIISAAEEYEIGKRTLMSAKALLSIESIKKTDGWYWTLPH
  soluble fraction (log2): -0.0778

## HMTLAAATESREYLADLARRLDAADHGDKTRIKAEAAGLLGWSMATLHARLARDVGWTSGRK
  soluble fraction (log2): -0.166

## HMTGQHFDLEDTDGNLVYEIDSTVPLKTFYIYDAMHTEIFRMTKELLHALPTYRFYLYGEPYGVLKKQ
  soluble fraction (log2): -0.52

## HMKEIYIDRGKEALEKELRKRKIPFQEFLSKENTNLLFDTLKIPSHDLEELYLEIGNGKHAASTVVNTVY
  soluble fraction (log2): -0.0339

## HMVGQIISNARKQEKMTQSELAEKVGTNKTYISRIEKGVIEPGVGLFFRIIDALGLKIEIVKP
  soluble fraction (log2): -0.362

## HMIEESTVPDLKGKSQEDAIKLLEDANLKYQIVEEESKKIEAGYVISQETDANKKVNAGDTVIIHVST
  soluble fraction (log2): -0.0907

## HMGTHDAGTRFFDNLDSLLQNRDATRADVLAVYLLAVSLGFRGKHRSVSSAPQIAHYRNQAYVTLFQ
  soluble fraction (log2): -0.386

## HMVLELRIGQIVRGVLLQLVGEREGIVSVGGVPVRARLEAEIPLGRGVMLQVQPGSDANNILLKPV
  soluble fraction (log2): -0.139

## HMFQRLPFSFANRYKMVLEYQHPERPPVLYYVEPLKAAAILEVSRVIKSGFTPQAIVSDEFEKKLTEAYQR
  soluble fraction (log2): 0.0565

## HMTQGIDQISFSQFLDKVQSGEVTDVRISGSDITGTLKTGGKFETVAGNYEKIWDLLRENKVVFVVDSP
  soluble fraction (log2): -0.309

## HMSAPTAFSERELELLAGMRRGASNKAMAEQLFISVNTVKYHRANLMRKLGARDRNEALEVAARLG
  soluble fraction (log2): -0.179
